Test results taken from the FLAb antibody collection.

B1: unnamed (protein)
chain 1: QVQLQESGPGLVKPSETLSLTCTVSGFSLTSYIVDWIRQPPGKGLEWIGVIWAGGSTGYNSALRSRVSITKDTSKNQFSLKLSSVTAADTAVYYCASAAYYSYYNYDGFAYWGQGTLVTVSS
chain 2: DVVMTQSPLSLPVTLGQPASISCKSSQSLLYTDGKTYLYWFLQRPGQSPRRLIYLVSKLDSGVPDRFSGSGSGTDFTLKISRVEAEDVGVYYCLQSTHFPHTFGGGTKVEIK
B2: unnamed (protein)
chain 1: EVKLEESGGGLVQPGGSMKLSCVASGFIFSNHWMNWVRQSPEKGLEWVAEIRSKSINSATHYAESVKGRFTISRDDSKSAVYLQMTDLRTEDTGVYYCSRNYYGSTYDYWGQGTTLTVSS
chain 2: DILLTQSPAILSVSPGERVSFSCRASQFVGSSIHWYQQRTNGSPRLLIKYASESMSGIPSRFSGSGSGTDFTLSINTVESEDIADYYCQQSHSWPFTFGSGTNLEVK
B3: unnamed (protein)
chain 1: EVQLVESGGGLVKPGGSLKLSCAASGFKFSRYAMSWVRQAPGKRLEWVATISSGGSYIYYPDSVKGRFTISRDNVKNTLYLQMSSLRSEDTAMYYCARRDYDLDYFDSWGQGTLVTVSS
chain 2: DIQMTQSPSSLSASVGDRVTITCKASRDIRSYLTWYQQKPGKAPKTLIYYATSLADGVPSRFSGSGSGQDYSLTISSLESDDTATYYCLQHGESPFTLGSGTKLEIK
B4: unnamed (protein)
chain 1: EVQLLESGGGLVQPGGSLRLSCAASGFTFSIYSMNWVRQAPGKGLEWVSSIGSSGGTTYYADSVKGRFTISRDNSKNTLYLQMNSLRAEDTAVYYCAGSQWLYGMDVWGQGTTVTVSS
chain 2: DIQMTQSPSSLSASVGDRVTITCRSSQRIMTYLNWYQQKPGKAPKLLIFVASHSQSGVPSRFRGSGSETDFTLTISGLQPEDSATYYCQQSFWTPLTFGGGTKVEIK
B5: unnamed (protein)
chain 1: QVQLVESGGGVVQPGRSLRLSCAASGFTFSSYGMHWVRQAPGKGLEWVAVISYEESNRYHADSVKGRFTISRDNSKITLYLQMNSLRTEDTAVYYCARDGGIAAPGPDYWGQGTLVTVSS
chain 2: DIVMTQSPLSLTVTPGEPASISCRSSQSLLYSNGYNYLDWYLQKPGQSPQVLISLGSNRASGVPDRFSGSGSGTDFTLKISRVEAEDVGVYYCMQARQTPFTFGPGTKVDIR
B6: unnamed (protein)
chain 1: QVQLKESGPGLVAPSQSLSITCTVSGFSVTNYGVHWVRQPPGKGLEWLGVIWAGGITNYNSAFMSRLSISKDNSKSQVFLKMNSLQIDDTAMYYCASRGGHYGYALDYWGQGTSVTVSS
chain 2: SIVMTQTPKFLLVSAGDRVTITCKASQSVSNDVTWYQQKAGQSPKLLIYSASNRYSGVPDRFTGSGYGTAFTFTISTVQAEDLAVYFCQQDYSSFGGGTKLEIK
B7: unnamed (protein)
chain 1: EVQLVESGGGLVQPGGSLRLSCAASGFTFNNYAMNWVRQAPGKGLDWVSTISGSGGTTNYADSVKGRFIISRDSSKHTLYLQMNSLRAEDTAVYYCAKDSNWGNFDLWGRGTLVTVSS
chain 2: not shown
B8: unnamed (protein)
chain 1: EVQLVQSGAEVKKPGASVKVSCKASGYRFTNYWIHWVRQAPGQGLEWIGGINPGNNYATYRRKFQGRVTMTADTSTSTVYMELSSLRSEDTAVYYCTREGYGNYGAWFAYWGQGTLVTVSS
chain 2: DVQVTQSPSSLSASVGDRVTITCRSSQSLANSYGNTFLSWYLHKPGKAPQLLIYGISNRFSGVPDRFSGSGSGTDFTLTISSLQPEDFATYYCLQGTHQPYTFGQGTKVEIK
B9: unnamed (protein)
chain 1: EVQLVESGGGLVRPGGSLRLSCAASGFTFSNYDMHWVRQATGKGLEWVSAITAAGDIYYPGSVKGRFTISRENAKNSLYLQMNSLRAGDTAVYYCARGRYSGSGSYYNDWFDPWGQGTLVTVSS
chain 2: EIVLTQSPATLSLSPGERATLSCRASQSVSSYLAWYQQKPGQAPRLLIYDASNRATGIPARFSGSGSGTDFTLTISSLEPEDFAVYYCQQRSNWPLTFGGGTKVEIK
B10: unnamed (protein)
chain 1: QVQLVQSGAEVKKPGSSVKVSCKASGYSFTDYHIHWVRQAPGQGLEWMGVINPMYGTTDYNQRFKGRVTITADESTSTAYMELSSLRSEDTAVYYCARYDYFTGTGVYWGQGTLVTVSS
chain 2: DIVMTQTPLSLSVTPGQPASISCRSSRSLVHSRGNTYLHWYLQKPGQSPQLLIYKVSNRFIGVPDRFSGSGSGTDFTLKISRVEAEDVGVYYCSQSTHLPFTFGQGTKLEIK

Assay: patients with anti-drug antibodies; higher = more immunogenic

| Protein | patients with anti-drug antibodies |
| --- | --- |
| B1 | 4% |
| B2 | 30.5% |
| B3 | 15.8% |
| B4 | 7.4% |
| B5 | 1.8% |
| B6 | 100% |
| B7 | 3.9% |
| B8 | 2% |
| B9 | 3.6% |
| B10 | 8.5% |
